Laboratory results reported in patent US20250339531A1, “DUX4 POLYPEPTIDES AND NUCLEIC ACIDS FOR TREATING INFLAMMATORY AND AUTOIMMUNE CONDITIONS” (Fred Hutchinson Cancer Center, priority 2021, published 2025).

B1: P11802 (protein, UniProt P11802 1-303, looked up)
chain: MATSRYEPVAEIGVGAYGTVYKARDPHSGHFVALKSVRVPNGGGGGGGLPISTVREVALLRRLEAFEHPNVVRLMDVCATSRTDREIKVTLVFEHVDQDLRTYLDKAPPPGLPAETIKDLMRQFLRGLDFLHANCIVHRDLKPENILVTSGGTVKLADFGLARIYSYQMALTPVVVTLWYRAPEVLLQSTYATPVDMWSVGCIFAEMFRRKPLFCGNSEADQLGKIFDLIGLPPEDDWPRDVSLPRGAFPPRGPRPVQSVVPEMEESGAQLLLEMLTFNPHKRISAFRALQHSYLHKDEGNPE
modifications: full-length
B2: Q13263 (protein, UniProt Q13263 1-835, looked up)
chain: MAASAAAASAAAASAASGSPGPGEGSAGGEKRSTAPSAAASASASAAASSPAGGGAEALELLEHCGVCRERLRPEREPRLLPCLHSACSACLGPAAPAAANSSGDGGAAGDGTVVDCPVCKQQCFSKDIVENYFMRDSGSKAATDAQDANQCCTSCEDNAPATSYCVECSEPLCETCVEAHQRVKYTKDHTVRSTGPAKSRDGERTVYCNVHKHEPLVLFCESCDTLTCRDCQLNAHKDHQYQFLEDAVRNQRKLLASLVKRLGDKHATLQKSTKEVRSSIRQVSDVQKRVQVDVKMAILQIMKELNKRGRVLVNDAQKVTEGQQERLERQHWTMTKIQKHQEHILRFASWALESDNNTALLLSKKLIYFQLHRALKMIVDPVEPHGEMKFQWDLNAWTKSAEAFGKIVAERPGTNSTGPAPMAPPRAPGPLSKQGSGSSQPMEVQEGYGFGSGDDPYSSAEPHVSGVKRSRSGEGEVSGLMRKVPRVSLERLDLDLTADSQPPVFKVFPGSTTEDYNLIVIERGAAAAATGQPGTAPAGTPGAPPLAGMAIVKEEETEAAIGAPPTATEGPETKPVLMALAEGPGAEGPRLASPSGSTSSGLEVVAPEGTSAPGGGPGTLDDSATICRVCQKPGDLVMCNQCEFCFHLDCHLPALQDVPGEEWSCSLCHVLPDLKEEDGSLSLDGADSTGVVAKLSPANQRKCERVLLALFCHEPCRPLHQLATDSTFSLDQPGGTLDLTLIRARLQEKLSPPYSSPQEFAQDVGRMFKQFNKLTEDKADVQSIIGLQRFFETRMNEAFGDTKFSAVLVEPPPMSLPGAGLSSQELSGGPGDGP
modifications: full-length
B3: Q63ZY3 (protein, UniProt Q63ZY3 1-851, looked up)
chain: MAQVLHVPAPFPGTPGPASPPAFPAKDPDPPYSVETPYGYRLDLDFLKYVDDIEKGHTLRRVAVQRRPRLSSLPRGPGSWWTSTESLCSNASGDSRHSAYSYCGRGFYPQYGALETRGGFNPRVERTLLDARRRLEDQAATPTGLGSLTPSAAGSTASLVGVGLPPPTPRSSGLSTPVPPSAGHLAHVREQMAGALRKLRQLEEQVKLIPVLQVKLSVLQEEKRQLTVQLKSQKFLGHPTAGRGRSELCLDLPDPPEDPVALETRSVGTWVRERDLGMPDGEAALAAKVAVLETQLKKALQELQAAQARQADPQPQAWPPPDSPVRVDTVRVVEGPREVEVVASTAAGAPAQRAQSLEPYGTGLRALAMPGRPESPPVFRSQEVVETMCPVPAAATSNVHMVKKISITERSCDGAAGLPEVPAESSSSPPGSEVASLTQPEKSTGRVPTQEPTHREPTRQAASQESEEAGGTGGPPAGVRSIMKRKEEVADPTAHRRSLQFVGVNGGYESSSEDSSTAENISDNDSTENEAPEPRERVPSVAEAPQLRPAGTAAAKTSRQECQLSRESQHIPTAEGASGSNTEEEIRMELSPDLISACLALEKYLDNPNALTERELKVAYTTVLQEWLRLACRSDAHPELVRRHLVTFRAMSARLLDYVVNIADSNGNTALHYSVSHANFPVVQQLLDSGVCKVDKQNRAGYSPIMLTALATLKTQDDIETVLQLFRLGNINAKASQAGQTALMLAVSHGRVDVVKALLACEADVNVQDDDGSTALMCACEHGHKEIAGLLLAVPSCDISLTDRDGSTALMVALDAGQSEIASMLYSRMNIKCSFAPMSDDESPTSSSAEE
modifications: full-length
B4: Q15393 (protein, UniProt Q15393 1-1217, looked up)
chain: MFLYNLTLQRATGISFAIHGNFSGTKQQEIVVSRGKILELLRPDPNTGKVHTLLTVEVFGVIRSLMAFRLTGGTKDYIVVGSDSGRIVILEYQPSKNMFEKIHQETFGKSGCRRIVPGQFLAVDPKGRAVMISAIEKQKLVYILNRDAAARLTISSPLEAHKANTLVYHVVGVDVGFENPMFACLEMDYEEADNDPTGEAAANTQQTLTFYELDLGLNHVVRKYSEPLEEHGNFLITVPGGSDGPSGVLICSENYITYKNFGDQPDIRCPIPRRRNDLDDPERGMIFVCSATHKTKSMFFFLAQTEQGDIFKITLETDEDMVTEIRLKYFDTVPVAAAMCVLKTGFLFVASEFGNHYLYQIAHLGDDDEEPEFSSAMPLEEGDTFFFQPRPLKNLVLVDELDSLSPILFCQIADLANEDTPQLYVACGRGPRSSLRVLRHGLEVSEMAVSELPGNPNAVWTVRRHIEDEFDAYIIVSFVNATLVLSIGETVEEVTDSGFLGTTPTLSCSLLGDDALVQVYPDGIRHIRADKRVNEWKTPGKKTIVKCAVNQRQVVIALTGGELVYFEMDPSGQLNEYTERKEMSADVVCMSLANVPPGEQRSRFLAVGLVDNTVRIISLDPSDCLQPLSMQALPAQPESLCIVEMGGTEKQDELGERGSIGFLYLNIGLQNGVLLRTVLDPVTGDLSDTRTRYLGSRPVKLFRVRMQGQEAVLAMSSRSWLSYSYQSRFHLTPLSYETLEFASGFASEQCPEGIVAISTNTLRILALEKLGAVFNQVAFPLQYTPRKFVIHPESNNLIIIETDHNAYTEATKAQRKQQMAEEMVEAAGEDERELAAEMAAAFLNENLPESIFGAPKAGNGQWASVIRVMNPIQGNTLDLVQLEQNEAAFSVAVCRFSNTGEDWYVLVGVAKDLILNPRSVAGGFVYTYKLVNNGEKLEFLHKTPVEEVPAAIAPFQGRVLIGVGKLLRVYDLGKKKLLRKCENKHIANYISGIQTIGHRVIVSDVQESFIWVRYKRNENQLIIFADDTYPRWVTTASLLDYDTVAGADKFGNICVVRLPPNTNDEVDEDPTGNKALWDRGLLNGASQKAEVIMNYHVGETVLSLQKTTLIPGGSESLVYTTLSGGIGILVPFTSHEDHDFFQHVEMHLRSEHPPLCGRDHLSFRSYYFPVKNVIDGDLCEQFNSMEPNKQKNVSEELDRTPPEVSKKLEDIRTRYAF
modifications: full-length
B5: CDK4 (protein)
chain: ATSRYEPVAEIGVGAYGTVYKARDPHSGHFVALKSVRVPNGGGGGGGLPISTVREVALLRRLEAFEHPNVVRLMDVCATSRTDREIKVTLVFEHVDQDLRTYLDKAPPPGLPAETIKDLMRQFLRGLDFLHANCIVHRDLKPENILVTSGGTVKLADFGLARIYSYQMALTPVVVTLWYRAPEVLLQSTYATPVDMWSVGCIFAEMFRRKPLFCGNSEADQLGKIFDLIGLPPEDDWPRDVSLPRGAFPPRGPRPVQSVVPEMEESGAQLLLEMLTFNPHKRISAFRALQHSYLHKDEGNPE
B6: P13489 (protein, UniProt P13489 1-461, looked up)
chain: MSLDIQSLDIQCEELSDARWAELLPLLQQCQVVRLDDCGLTEARCKDISSALRVNPALAELNLRSNELGDVGVHCVLQGLQTPSCKIQKLSLQNCCLTGAGCGVLSSTLRTLPTLQELHLSDNLLGDAGLQLLCEGLLDPQCRLEKLQLEYCSLSAASCEPLASVLRAKPDFKELTVSNNDINEAGVRVLCQGLKDSPCQLEALKLESCGVTSDNCRDLCGIVASKASLRELALGSNKLGDVGMAELCPGLLHPSSRLRTLWIWECGITAKGCGDLCRVLRAKESLKELSLAGNELGDEGARLLCETLLEPGCQLESLWVKSCSFTAACCSHFSSVLAQNRFLLELQISNNRLEDAGVRELCQGLGQPGSVLRVLWLADCDVSDSSCSSLAATLLANHSLRELDLSNNCLGDAGILQLVESVRQPGCLLEQLVLYDIYWSEEMEDRLQALEKDKPSLRVIS
modifications: full-length

System: proteins that co-immunoprecipitated with DUX4-CTD constructs expressed in MB135 myoblasts
Experiment: LC-MS of proteins co-immunoprecipitated with DUX4-CTD (Table 1) and western validation
Assay type: binding, human
Design: key to 4. mL1dL2 + Dox + IFNG / 4. + IFNG mix / 4. longCTD + Dox + IFNG / 3. + IFNg + Dox longCTD / 3. + Dox longCTD / 3. + IFNG longCTD: peptide-spectrum matches (PSMs) per protein
Conditions: for 4. longCTD + Dox + IFNG: LC-MS counts of the listed protein co-immunoprecipitated with DUX4-CTD bait longCTD, experiment 4, Dox + IFNG; for 3. + Dox longCTD: experiment 3, Dox only; for 3. + IFNg + Dox longCTD: experiment 3, IFNg + Dox; for SUM of PSMS: sum over all samples
Outline: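 Two independent experiments compared uninduced, doxycycline and doxycycline+IFNG MB135iDUX4-CTD (plus MB135iDUX4mL1dL2) myoblasts. Anti-FLAG pulldowns (3 h, 4 °C) were eluted in LDS buffer for western validation or with FLAG peptide for trypsin digestion and Orbitrap LC-MS; hits needed ≥2 PSMs in both experiments, ranked by total PSMs.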

| Molecule | 4. longCTD + Dox + IFNG | 3. + Dox longCTD (bait longCTD) | 3. + IFNg + Dox longCTD (bait longCTD) | SUM of PSMS | 4. mL1dL2 + Dox + IFNG (LC-MS value per protein co-immunoprecipitated with DUX4-CTD construct mL1dL2 in MB135 myoblasts, + Dox + IFNG, kind of count not given) | 3. + IFNG longCTD (bait longCTD, experiment 3, IFNG only, no doxycycline (bait at background level)) |
| --- | --- | --- | --- | --- | --- | --- |
| B1 | 11 | 1 | 1 | 16 | – | – |
| B2 | 2 | – | 1 | 12 | – | – |
| B3 | 4 | 3 | 3 | 11 | – | – |
| B4 | 1 | 1 | 3 | 15 | – | – |
| B5 | – | – | – | – | 3 | – |
| B6 | 4 | – | – | 15 | – | 1 |
